Experimental data taken from patent US20250257122A1 (UNITED STATES OF AMERICA AS REPRESENTED BY THE SECRETARY OF …, published 2025).
Positions count from the first letter of the chain named.

T1: cotton leafroll dwarf virus (CLRDV) N-terminal readthrough domain (^NRTD), purified soluble construct (cotton leafroll dwarf virus (CLRDV), …)
T1 construct: Expressed in E. coli; Calculated MW 26.410 kDa; also called CLRDV ^NRTD; CLRDV ^NRTD (TX)
T1 chain: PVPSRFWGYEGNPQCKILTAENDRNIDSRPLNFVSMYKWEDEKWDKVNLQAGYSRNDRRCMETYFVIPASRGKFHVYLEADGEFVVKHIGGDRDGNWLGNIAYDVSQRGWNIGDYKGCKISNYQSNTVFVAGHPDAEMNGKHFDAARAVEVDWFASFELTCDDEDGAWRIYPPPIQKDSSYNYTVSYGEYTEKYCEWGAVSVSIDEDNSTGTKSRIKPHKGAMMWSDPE

B1: D12 camelid single-chain antibody (VHH)
VHH: QVQLQESGGGLVQAGDSLRLSCAASGRTFNSFAMGWFRQAPGKEREFVAAIKWNGVTTDYADSMKGRFTISRDNAKNTMYLQMNTLKPEDTAIYYCAAKPTWATTNGRPTAYDYWGQGTQVTVSS
notes: Alpaca VHH, cloned into pMES4 and expressed in E. coli; also called D12 single-chain antibody
B2: A12 camelid single-chain antibody (VHH)
VHH: B1 VHH with V12A, K52N, T110A
notes: Alpaca VHH, cloned into pMES4 and expressed in E. coli; also called A12 single-chain antibody
B3: C12 camelid single-chain antibody (VHH)
VHH: B1 VHH with V12A, K65R, L81M
notes: Alpaca VHH, cloned into pMES4 and expressed in E. coli; also called C12 single-chain antibody

Assays:
[1] = target: T1, cotton leafroll dwarf virus (CLRDV) …; experiment: phage display panning and screening (legend of FIG. 3)
Description: (§1) Isolation and screening for specific single-chain antibodies was carried out as detailed by K. M. Chow, et al. (2019, “Immunization of Alpacas (Lama pacos) with Protein Antigens and Production of Antigen-specific Single Domain Antibodies,” J. Vis. Exp. (143), e58471. doi: 10.3791/58471). Briefly, alpacas were immunized with ˜400 μg of a mixture of both TX and AL CP or ^NRTD preparations that contained 50% (v/v) of adjuvant. Five subsequent weekly boosting injections were provided using ˜200 μg of the same mixture detailed above. Three to five days after the last injection, 50 mL of blood was collected, and lymphocytes purified. A cDNA library was prepared using oligodT primers and RNA extracted from lymphocytes. A bacteriophage library was obtained from the cDNA library by cloning with restriction enzymes into the phage display vector pMES4. Expression of the insert fused to gene III of the filamentous phage was used for production of the phage solution and single-domain antibody panning. After screening, two single-chain antibodies that recognized the CRLDV CP were identified and named B6 (SEQ ID NO: 8) and E3 (SEQ ID NO: 4) and three single-chain antibodies that recognized the CRLDV ^NRTD were identified and names C12 (SEQ ID NO: 12), A12 (SEQ ID NO: 16), and D12 (SEQ ID NO: 20), respectively.

[2] = target: T1, cotton leafroll dwarf virus (CLRDV) …; experiment: phage display panning and screening
Description: as §1

Binder	binding result [1]	binding result [2]
B1	binds	–
B2	–	binds
B3	–	binds
